B1: Subtilisin-chymotrypsin inhibitor-2A, P01053 (parent)
chain: MSSVEKKPEGVNTGAGDRHNLKTEWPELVGKSVEEAKKVILQDKPEAQIIVLPVGTIVTMEYRIDRVRLFVDKLDNIAQVPRVG

Variants of: B1
Details: Hordeum vulgare, MES 450 mM, reversible: yes, structure 2CI2, whole UniProt chain shown; for ddG of mutation (higher = less stable) / heat capacity change of unfolding / denaturant m value / denaturant midpoint (higher = more stable) / unfolding free energy: 25 °C

Variant	ddG of mutation (higher = less stable) (pH 3.5, Thermal, DSC) [kcal/mol]	heat capacity change of unfolding (pH 3.5, Thermal, DSC) [kcal/mol/K]	ddG of mutation (higher = less stable) (pH 6.3, GdnHCl, Fluorescence) [kcal/mol]	denaturant m value (pH 6.3, GdnHCl, Fluorescence) [kcal/mol/M]	denaturant midpoint (higher = more stable) (pH 6.3, GdnHCl, Fluorescence) [M]	unfolding free energy (pH 6.3, GdnHCl, Fluorescence) [kcal/mol]	ddG of mutation (higher = less stable) (pH 3, Thermal, DSC) [kcal/mol]	heat capacity change of unfolding (pH 3, Thermal, DSC) [kcal/mol/K]	Tm (pH 3, Thermal, DSC) [°C]	change of melting temperature, mutant - wild type (higher = more stable) (pH 3, Thermal, DSC) [°C]	unfolding enthalpy (calorimetric) (pH 3, Thermal, DSC) [kcal/mol]	unfolding enthalpy (van 't Hoff) (pH 3, Thermal, DSC) [kcal/mol]	Tm (pH 3.5, Thermal, DSC) [°C]	change of melting temperature, mutant - wild type (higher = more stable) (pH 3.5, Thermal, DSC) [°C]	unfolding enthalpy (calorimetric) (pH 3.5, Thermal, DSC) [kcal/mol]	unfolding enthalpy (van 't Hoff) (pH 3.5, Thermal, DSC) [kcal/mol]
MSSVEKKPEGVNTGAGDRHNLKTEWPELVGKSVEEAKKVILQDKPEAQAIVLPVGTIVTMEYRIDRVRLFVDKLDNVAQVPRVG [I49A I77V]	4.69	0.72	4.08	1.83	1.9	3.46										
MSSVEKKPEGVNTGAGDRHNLKTEWPELVGKSVEEAKKVILQDKPEAQIIVLPVGTIVTMEYRIDRVRLFVDKLDNVAQVPRVG [I77V]							-0.09	0.72	65.4	1.4	60.5	60.5				
MSSVEKKPEGVNTGAGDRHNLKTEWPELVGKSVEEAKKVILQDKPEAQIIVLPVGTIVTMEYRIDRVRLFVDKLDNAAQVPRVG [I77A]	4.34	0.72	4.09	1.93	1.79	3.45	4.23	0.72	38.3	-25.7	30.2	37.2	50.3	-23.5	41	46.8
MSSVEKKPEGVNTGAGDRHNLKTEWPELVGKSVEEAKKVVLQDKPEAQIIVLPVGTIVTMEYRIDRVRLFVDKLDNIAQVPRVG [I40V]			0.91	1.99	3.33	6.63	1.2	0.72	57.7	-6.3	53.7	54.8	67.3	-6.5	61.5	62.5
MSSVEKKPEGVNTGAGDRHNLKTEWPEAVGKSVEEAKKVILQDKPEAQIIVLPVGTIVTMEYRIDRVRLFVDKLDNIAQVPRVG [L28A]			1.91	2.15	2.62	5.63			48.5	-15.5	45	44.4				
MSSVEKKPEGVNTGAGDRHNLKTEWPELVGKSVEEAKKVILQDKPEAQIIVLPVGTIVTMEYRIDRVRLFADKLDNIAQVPRVG [V71A]			1.13	2.15	2.98	6.41	2.17	0.72	51.3	-12.7	48.5	49.7				
MSSVEKKPEGVNTGAGDRHNLKTEWPELVGKSVEEAKKVILQDKPEAQAIVLPVGTIVTMEYRIDRVRLFVDKLDNIAQVPRVG [I49A]	3.89	0.72	3.4	2.07	2	4.14							52.5	-21.3	44.9	46.9
MSSVEKKPEGVNTGAGDRHNLKTEWPELVGKSVEEAKKVILQDKPEAQVIVLPVGTIVTMEYRIDRVRLFVDKLDNIAQVPRVG [I49V]	0.92	0.72	0.75	1.99	3.43	6.8							69.1	-4.7	62.4	61.6
MSSVEKKPEGVNTGAGDRHNLKTEWPELVGKSVEEAKKVILQDKPEAQIIVLPVGTIVTMEYRIDRVRAFVDKLDNIAQVPRVG [L69A]	3.74	0.72	3.56	1.98	2.01	3.98							52.3	-21.5	46.7	46.9
MSSVEKKPEGVNTGAGDRHNLKTEWPELVGKSVEEAKKAILQDKPEAQIIVLPVGTIVTMEYRIDRVRLFVDKLDNIAQVPRVG [V39A]			0	2.01	3.75	7.54	0.46	0.72	61.1	-2.9	58.5	58.6				
MSSVEKKPEGVNTGAGDRHNLKTEWPELVGKSVEEAKKVILQDKPEAQIIVLPVGTIVTMEYRIDRARLFVDKLDNIAQVPRVG [V67A]			4.97	1.76	1.46	2.57							45.3	-28.5	37.3	35.8

Reference: FireProtDB (doi:10.1021/bi00093a001)
